Measurements reported in publication PMC6684389.

Molecular target: YTHDC1 YTH domain (UniProt Q96MU7 345-509)
Test: MST

| Binder | Kd |
| --- | --- |
| AAAGGACGUGG (ssRNA) [probe 2] | 16.9 µM |
| AAAGGACGUGG (ssRNA, m6A at position 6) [probe 1] | 0.39 µM |
